Patent publication US11447754B2, “In vitro methods of chemical conversion using non-stereospecific glutathione lyases” (WISCONSIN ALUMNI RESEARCH FOUNDATION, priority 2017, dated 2022)

Key:
[1] = substrate: COc1cc(C(=O)[C@@H](CO)Oc2ccccc2OC)ccc1O; assay: Kinetics of the enzymatic cleavage of β(R)-MPHPV by LigE; assay type: biochemical, Novosphingobium aromaticivorans; settings: other: β(R)-MPHPV into GS-HPV, 70 nM enzyme (monomer), 5 mM GSH, pH 8.0, 25° C.
Text: Enzyme purifications. Genes Saro_2595, E. coli yghU, E. coli yfcG, and SLG_04120 from Sphingobium sp. SYK-6 (codon-optimized for expression in E. coli) were individually cloned into plasmid pVP302K (Gall and Ralph et al. 2014) so that transcripts from the plasmids would be translated into proteins containing a His8-tag connected to the N-terminus via a tobacco etch virus (TEV) protease recognition site. Recombinant proteins were expressed in E. coli B834 (Wood 1966, Doherty et al. 1995) containing plasmid pRARE2 (Novagen, Madison, Wis.) grown for ˜24 h at 27° C. in ZYM-5052 Autoinduction Medium (Studier 2005) containing kanamycin and chloramphenicol. Recombinant proteins were purified essentially as described previously (Gall and Kim et al. 2014); see below for modifications to the procedure. After removal of His8-tags using TEV protease, recombinant proteins retained a Ser-Ala-Ile-Ala-Gly-peptide on their N-termini, derived from the linker between the protein and the TEV protease recognition site. Recombinant LigE and LigF1 from N. aromaticivorans were purified as previously described (Gall and Ralph et al. 2014).
(§1) Kinetics of the enzymatic cleavage of β(R)-MPHPV. Various concentrations of racemic MPHPV (equal amounts of the β(S)- and β(R)-stereoisomers) were combined with 5 mM GSH in RB. At time zero, 100 μL of a given enzyme in RB+5 mM GSH was combined with 1000 μL of the racemic MPHPV/GSH sample at 25° C. (both samples were equilibrated to 25° C. before mixing). […] At specified time points, 200 μL of a reaction was removed and combined with 40 μL of 1 M HCl (Acros Organics) to stop the reaction before HPLC analysis to quantify GS-HPV formed. […]
(§2) HPLC analysis. Analysis and quantification of aromatic compounds were performed using an Ultra AQ C18 5 μm column (Restek) attached to a System Gold HPLC (Beckman Coulter) with running buffers and methods described in Example 1. The eluent was analyzed for light absorbance between 191 and 600 nm, and absorbances at 280 nm were used for quantification of aromatic metabolites by comparing peak areas to those of standards.

[2] = substrate: COc1cc(C(=O)[C@@H](CO)Oc2ccccc2OC)ccc1O; assay: Kinetics of the enzymatic cleavage of β(R)-MPHPV by BaeA; assay type: biochemical, Novosphingobium aromaticivorans; settings: other: β(R)-MPHPV into GS-HPV, 18 nM dimeric enzyme, 5 mM GSH, pH 8.0, 25° C.
Protocol: (§3) Expression and purification of recombinant enzymes. Recombinant proteins were expressed using the plasmids described above in E. coli B834 containing plasmid pRARE2 (Novagen) grown for ˜25 hours at 25° C. in ZYM-5052 Autoinduction Medium containing kanamycin and chloramphenicol. Recombinant proteins were purified using a Ni^2+-NTA column as described in Example 1 above, except using gravity-flow columns instead of an FPLC system. After removal of His8-tags using Tev protease, recombinant proteins retained a Ser-Ala-Ile-Ala-Gly-peptide on their N-termini, derived from the linker between the protein and the Tev protease recognition site. Recombinant LigF1 was purified as previously described (Gall and Ralph et al. 2014).
Kinetics of the enzymatic cleavage of β(R)-MPHPV. Various concentrations of racemic MPHPV (equal amounts of the β(S)- and β(R)-stereoisomers) were combined with 5 mM GSH in RB. At time zero, 100 μL of a given enzyme in RB+5 mM GSH was combined with 1000 μL of the racemic MPHPV/GSH sample at 25° C. (both samples were equilibrated to 25° C. before mixing). Final concentrations of β(R)-MPHPV in each reaction were 0.0045, 0.010, 0.017, 0.068, or 0.13 mM. Final enzyme concentrations were 18 nM BaeA, 23 nM BaeA (2:S14A), 22 nM BaeA (3:S15A), 24 nM BaeA (2:S14A/3:S15A), 98 nM BaeA (3N14A), or 70 nM LigE (Saro_2405) (all concentrations are for the dimeric enzyme, except for LigE, which is the concentration of the monomer). At specified time points, 200 μL of a reaction was removed and combined with 40 μL of 1 M HCl (Acros Organics) to stop the reaction before HPLC analysis to quantify GS-HPV formed. […]
as §2

[3] = Kinetics of the enzymatic cleavage of β(R)-MPHPV into GS-HPV; assay type: biochemical
Protocol: Kinetics of the enzymatic cleavage of β(R)-MPHPV. Various concentrations of racemic MPHPV (equal amounts of the β(S)- and β(R)-stereoisomers) were combined with 5 mM GSH in RB. At time zero, 100 μL of a given enzyme in RB+5 mM GSH was combined with 1000 μL of the racemic MPHPV/GSH sample at 25° C. (both samples were equilibrated to 25° C. before mixing). Final concentrations of β(R)-MPHPV in each reaction were 0.0045, 0.010, 0.017, 0.068, or 0.13 mM. Final enzyme concentrations were 18 nM BaeA, 23 nM BaeA (2:S14A), 22 nM BaeA (3:S15A), 24 nM BaeA (2:S14A/3:S15A), 98 nM BaeA (3N14A), or 70 nM LigE (Saro_2405) (all concentrations are for the dimeric enzyme, except for LigE, which is the concentration of the monomer). At specified time points, 200 μL of a reaction was removed and combined with 40 μL of 1 M HCl (Acros Organics) to stop the reaction before HPLC analysis to quantify GS-HPV formed. Control experiments were allowed to proceed for several hours to ensure that only the β(R)-MPHPV in the reaction mixtures was being reacted with in these experiments.
as §2

[4] = substrate: COc1cc(C(=O)[C@@H](CO)Oc2ccccc2OC)ccc1O; assay: Kinetics of the enzymatic cleavage of β(R)-MPHPV by BaeA (3:S15A); assay type: biochemical, Novosphingobium aromaticivorans; settings: other: β(R)-MPHPV into GS-HPV, 22 nM dimeric enzyme, 5 mM GSH, pH 8.0, 25° C.
Text: (§4) To generate mutant 2:S14A, pVP302K/2873-H2872 was amplified by kinase phosphorylated primers “Saro2872-S14A_R” and “Saro2872-S14A_F”. To generate mutant 3:S15A, pVP302K/H2873-2872 was amplified by kinase phosphorylated primers “Saro2873-S15A_R” and “Saro2873-S15A_F”. To generate mutant 3:N14A, pVP302K/2873-H2872 was amplified by kinase phosphorylated primers “Saro2873-S15A_R” and “Saro2873-N14A_F”. These linear fragments were separately circularized using T4 DNA ligase to generate plasmids pVP302K/2873-H2872(S14A), pVP302K/H2873(S15A)-2872, and pVP302K/2873(N14A)-H2872, respectively.
as §3
as §1, with “RB.” for “RB. At time zero, 100 μL of a given enzyme in RB+5 mM GSH was combined with 1000 μL of the racemic MPHPV/GSH sample at 25° C. (both samples were equilibrated to 25° C. before mixing).”
as §2

[5] = substrate: COc1cc(C(=O)[C@@H](CO)Oc2ccccc2OC)ccc1O; assay: Kinetics of the enzymatic cleavage of β(R)-MPHPV by BaeA (2:S14A); assay type: biochemical, Novosphingobium aromaticivorans; settings: other: β(R)-MPHPV into GS-HPV, 23 nM dimeric enzyme, 5 mM GSH, pH 8.0, 25° C.
Text: as §4, §3
as §1, with “RB.” for “RB. At time zero, 100 μL of a given enzyme in RB+5 mM GSH was combined with 1000 μL of the racemic MPHPV/GSH sample at 25° C. (both samples were equilibrated to 25° C. before mixing).”
as §2

B1: Novosphingobium aromaticivorans LigE (Saro_2405), wild type (Novosphingobium aromaticivorans DSM 12444) (protein)
chain: MAANNTITFYDLALSTGATISPFVWATKYALKHKGFDLDVVPGGFTGILERTGGKTERLPAIVDDGEFVLDSWGIVEYLDAKYPDRPVLIPHESVAATLKALDNWFWNAAVGPWMFCFCQDYRDLSLPQDHEYVTHSREKMLGRKLEEVQAGREERLPKISAALEPLRAALAQHQWLGGSSPNYADYRIMGGILFTASVCKTPVLANDDPLRDWIERCLDLYGGLGRHPGLFPLFGLEQREGDPDLFNRAAGQGGIYKRNTGPESTRAETQRITEGMKK
notes: E. coli expressed
In the case of B1, the Km [1] is reported as 7 ± 1 µM, the kcat [1] is reported as 0.68 ± 0.06 s⁻¹ and the kcat/Km [1] is reported as 100000 ± 20000 M⁻¹ s⁻¹.

B2: Novosphingobium aromaticivorans BaeA, wild type, heterodimer of Saro_2872 (SEQ ID NO:40) and Saro_2873 (SEQ ID NO:42) (Novosphingobium aromaticivorans DSM … (protein)
chain 1: MSALLYHGEPNGASLTVLAALAETGLDIECRRIDLLAGERHSLPGIVDPVALDLSIEGEGPVLVIDGEAMTESVFLAQYLDEAAGGVGLQPTDAYARWEMMMWCRQITERLSPAAALLGNLATSQSAIAAIPAEDFAILAARIVSDDLRERWQALNDDAVNAAQVADSETKVAAAVDRCEKQLGDGREWLMGTFSIADLVTYSWLAGMEPLRPAAFADAPLVKAWLARTAARPCVQAALARATISEPLRAWAPGPEINRWG
chain 2: MDEVSLYHWEPNANSGKPMLALMEKGVPFSSHYIDMLQFDQHKPEYLAINPQGTIPAMTHNGQVLTESTAIMEYVNDRFDGPDLMPADAQDRWRVRWWMKFMDQWLGPSFSMIGWSVFVGPMVRQRDPAELAAAIDRIPLPERRTAWRKAINGDFSESEMAESRRRVGLGIAKLEEELGKRPYVGSNQYSLADINIFNSTYSLPISQPDLAGKDRTPNIMRWLKRVYTREAVKKTWAMGKTDLAHRYGLIMAEIEG
notes: His8 tag removed by TEV, SAIAG left on the N-terminus
Molecule B2 has a Km [2] of 20 ± 3 µM, a kcat [2] of 2.9 ± 0.3 s⁻¹ and a kcat/Km [2] of 150000 ± 30000 M⁻¹ s⁻¹.

B3: Saro_2872: polypeptide from Novosphingobium aromaticivorans, SEQ ID NO:40; subunit of BaeA (protein)
chain: MSALLYHGEPNGASLTVLAALAETGLDIECRRIDLLAGERHSLPGIVDPVALDLSIEGEGPVLVIDGEAMTESVFLAQYLDEAAGGVGLQPTDAYARWEMMMWCRQITERLSPAAALLGNLATSQSAIAAIPAEDFAILAARIVSDDLRERWQALNDDAVNAAQVADSETKVAAAVDRCEKQLGDGREWLMGTFSIADLVTYSWLAGMEPLRPAAFADAPLVKAWLARTAARPCVQAALARATISEPLRAWAPGPEINRWG
modifications: Novosphingobium aromaticivorans
notes: subunit of BaeA
For B3, the “activity of the Saro_2872 subunit in BaeA relative to the Saro_2873 subunit” value ([3]; inferred from the 3:N14A variant) was < 5%.

B4: Novosphingobium aromaticivorans BaeA (Saro_2872/Saro_2873 heterodimer, SEQ ID NO:40/SEQ ID NO:42) variant 3:S15A (Ser15 of Saro_2873 to Ala) (Novosphingobium … (protein)
chain 1: MSALLYHGEPNGASLTVLAALAETGLDIECRRIDLLAGERHSLPGIVDPVALDLSIEGEGPVLVIDGEAMTESVFLAQYLDEAAGGVGLQPTDAYARWEMMMWCRQITERLSPAAALLGNLATSQSAIAAIPAEDFAILAARIVSDDLRERWQALNDDAVNAAQVADSETKVAAAVDRCEKQLGDGREWLMGTFSIADLVTYSWLAGMEPLRPAAFADAPLVKAWLARTAARPCVQAALARATISEPLRAWAPGPEINRWG
chain 2: MDEVSLYHWEPNANAGKPMLALMEKGVPFSSHYIDMLQFDQHKPEYLAINPQGTIPAMTHNGQVLTESTAIMEYVNDRFDGPDLMPADAQDRWRVRWWMKFMDQWLGPSFSMIGWSVFVGPMVRQRDPAELAAAIDRIPLPERRTAWRKAINGDFSESEMAESRRRVGLGIAKLEEELGKRPYVGSNQYSLADINIFNSTYSLPISQPDLAGKDRTPNIMRWLKRVYTREAVKKTWAMGKTDLAHRYGLIMAEIEG
notes: His8 tag on Saro_2873 removed by TEV
Molecule B4 has a Km [4] of 100 ± 20 µM, a kcat [4] of 2.4 ± 0.3 s⁻¹ and a kcat/Km [4] of 23000 ± 6000 M⁻¹ s⁻¹.

B5: Novosphingobium aromaticivorans BaeA (Saro_2872/Saro_2873 heterodimer, SEQ ID NO:40/SEQ ID NO:42) variant 2:S14A (Ser14 of Saro_2872 to Ala) (Novosphingobium … (protein)
chain 1: MSALLYHGEPNGAALTVLAALAETGLDIECRRIDLLAGERHSLPGIVDPVALDLSIEGEGPVLVIDGEAMTESVFLAQYLDEAAGGVGLQPTDAYARWEMMMWCRQITERLSPAAALLGNLATSQSAIAAIPAEDFAILAARIVSDDLRERWQALNDDAVNAAQVADSETKVAAAVDRCEKQLGDGREWLMGTFSIADLVTYSWLAGMEPLRPAAFADAPLVKAWLARTAARPCVQAALARATISEPLRAWAPGPEINRWG
chain 2: MDEVSLYHWEPNANSGKPMLALMEKGVPFSSHYIDMLQFDQHKPEYLAINPQGTIPAMTHNGQVLTESTAIMEYVNDRFDGPDLMPADAQDRWRVRWWMKFMDQWLGPSFSMIGWSVFVGPMVRQRDPAELAAAIDRIPLPERRTAWRKAINGDFSESEMAESRRRVGLGIAKLEEELGKRPYVGSNQYSLADINIFNSTYSLPISQPDLAGKDRTPNIMRWLKRVYTREAVKKTWAMGKTDLAHRYGLIMAEIEG
notes: His8 tag on Saro_2872 removed by TEV, SAIAG left on N-terminus
With B5 the Km [5] was 22 ± 3 µM, the kcat [5] was 2.8 ± 0.2 s⁻¹ and the kcat/Km [5] was 130000 ± 20000 M⁻¹ s⁻¹.

B6: BaeA (3:N14A): BaeA variant with Asn14 of Saro_2873 mutated into Ala (protein)
chain: MDEVSLYHWEPNAASGKPMLALMEKGVPFSSHYIDMLQFDQHKPEYLAINPQGTIPAMTHNGQVLTESTAIMEYVNDRFDGPDLMPADAQDRWRVRWWMKFMDQWLGPSFSMIGWSVFVGPMVRQRDPAELAAAIDRIPLPERRTAWRKAINGDFSESEMAESRRRVGLGIAKLEEELGKRPYVGSNQYSLADINIFNSTYSLPISQPDLAGKDRTPNIMRWLKRVYTREAVKKTWAMGKTDLAHRYGLIMAEIEG
With B6 the “KM, fold higher than wild-type BaeA” value ([3]; β(R)-MPHPV) was ~12.5 fold and the “kcat, fold lower than (wild-type) BaeA” value ([3]; β(R)-MPHPV) was ~20 fold.
